The target of the assay is N-terminal structural domain of human Nogo-B protein (hNogo-B-N), residues 1-185, with human Fc fragment (human) (UniProt Q9NQC3). Briefly: SPR. On the technique in general: SPR reads the build-up and loss of mass on a sensor chip optically.
Chain of UniProt Q9NQC3 (Q9NQC3 1-185): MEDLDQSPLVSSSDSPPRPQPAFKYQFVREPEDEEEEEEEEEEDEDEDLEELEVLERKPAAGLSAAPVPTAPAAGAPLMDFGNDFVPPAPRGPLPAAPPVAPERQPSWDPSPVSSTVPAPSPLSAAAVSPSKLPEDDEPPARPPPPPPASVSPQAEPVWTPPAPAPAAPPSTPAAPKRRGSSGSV

The substance “human proGCG protein (hproGCG) with C-terminal Strep-tag II (natural protein)” displayed a Kd of 1370 nM.

What is called Kd is the equilibrium constant for the complex coming apart. Higher therefore signals weaker binding.
